Laboratory results: patent US20260139023A1

Target: full-length integrin αVβ5 ectopically expressed on HEK293T cells (UniProt P06756)
Assay: cell-based or functional assay

Sequence of full-length integrin αVβ5 ectopically expressed on HEK293T cells (P06756 31-1048 limits assumed, chain 1 of 2): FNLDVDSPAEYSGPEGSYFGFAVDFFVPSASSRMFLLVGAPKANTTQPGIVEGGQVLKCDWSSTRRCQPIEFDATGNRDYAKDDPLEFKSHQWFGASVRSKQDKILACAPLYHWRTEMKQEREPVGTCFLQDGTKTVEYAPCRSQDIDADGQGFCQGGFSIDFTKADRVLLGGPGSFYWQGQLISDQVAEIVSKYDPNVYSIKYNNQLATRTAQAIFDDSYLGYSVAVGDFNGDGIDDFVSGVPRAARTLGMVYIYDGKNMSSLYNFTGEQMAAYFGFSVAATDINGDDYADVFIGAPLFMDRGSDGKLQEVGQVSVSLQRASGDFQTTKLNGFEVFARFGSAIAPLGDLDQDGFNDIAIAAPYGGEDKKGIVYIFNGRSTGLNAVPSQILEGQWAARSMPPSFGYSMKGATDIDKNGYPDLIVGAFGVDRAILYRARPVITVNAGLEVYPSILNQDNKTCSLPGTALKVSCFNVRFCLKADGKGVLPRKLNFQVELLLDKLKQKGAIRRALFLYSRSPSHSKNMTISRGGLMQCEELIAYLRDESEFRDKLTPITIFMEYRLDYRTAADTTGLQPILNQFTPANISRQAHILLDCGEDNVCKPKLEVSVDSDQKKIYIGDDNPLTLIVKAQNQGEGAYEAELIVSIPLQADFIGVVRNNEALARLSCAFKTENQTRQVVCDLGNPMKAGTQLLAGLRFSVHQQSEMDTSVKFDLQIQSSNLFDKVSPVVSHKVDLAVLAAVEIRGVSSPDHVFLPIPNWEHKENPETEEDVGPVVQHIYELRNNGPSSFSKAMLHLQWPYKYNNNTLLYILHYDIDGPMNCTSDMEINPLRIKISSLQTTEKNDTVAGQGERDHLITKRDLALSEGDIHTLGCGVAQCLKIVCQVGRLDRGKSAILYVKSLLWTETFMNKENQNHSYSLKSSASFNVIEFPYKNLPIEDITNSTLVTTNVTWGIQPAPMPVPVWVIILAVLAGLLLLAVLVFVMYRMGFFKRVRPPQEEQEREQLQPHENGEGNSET
Sequence of full-length integrin αVβ5 ectopically expressed on HEK293T cells (P18084 24-799 limits assumed, chain 2 of 2, further chain): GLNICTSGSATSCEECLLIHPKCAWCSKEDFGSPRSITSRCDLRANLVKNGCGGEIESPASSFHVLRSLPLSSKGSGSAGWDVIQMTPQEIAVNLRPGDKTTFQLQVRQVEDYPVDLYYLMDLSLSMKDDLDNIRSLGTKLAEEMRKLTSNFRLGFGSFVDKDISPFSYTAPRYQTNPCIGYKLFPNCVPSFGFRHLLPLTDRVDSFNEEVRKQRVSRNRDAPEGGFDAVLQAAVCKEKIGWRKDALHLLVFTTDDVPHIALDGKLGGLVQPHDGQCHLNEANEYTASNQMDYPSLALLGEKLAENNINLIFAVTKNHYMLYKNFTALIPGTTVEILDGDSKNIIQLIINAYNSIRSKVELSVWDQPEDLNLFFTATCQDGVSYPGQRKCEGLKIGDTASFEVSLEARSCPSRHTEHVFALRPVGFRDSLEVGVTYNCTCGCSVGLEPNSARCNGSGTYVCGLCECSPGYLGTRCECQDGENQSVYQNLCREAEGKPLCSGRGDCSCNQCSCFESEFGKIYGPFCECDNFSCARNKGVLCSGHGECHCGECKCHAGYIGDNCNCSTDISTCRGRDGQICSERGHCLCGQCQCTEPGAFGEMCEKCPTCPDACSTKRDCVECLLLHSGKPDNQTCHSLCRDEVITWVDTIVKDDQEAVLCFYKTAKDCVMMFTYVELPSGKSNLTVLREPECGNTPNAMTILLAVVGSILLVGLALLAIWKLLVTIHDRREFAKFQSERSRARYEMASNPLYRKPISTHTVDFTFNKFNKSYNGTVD

Substance: irisin N45Q mutant (irisin glycosylation mutant, recombinant, from mammalian Expi293 cells) (from UniProt Q8K3V5 60-171) (ligand)
- concentration at maximal integrin signaling (pFAK western blot, HEK293T cells pretreated with Hsp90α): 0.1 nM
- fold more potent integrin signaling than WT irisin: 5 to 10 fold
